Results published in publication PMC3514286 (PLoS ONE, 2012).
Residue numbers refer to the chain shown, from its start. Names and notes keep the numbering of the source.

B1: human mitochondrial Hsp60, wild type (natural protein, UniProt P10809 27-573, looked up)
chain: AKDVKFGADARALMLQGVDLLADAVAVTMGPKGRTVIIEQSWGSPKVTKDGVTVAKSIDLKDKYKNIGAKLVQDVANNTNEEAGDGTTTATVLARSIAKEGFEKISKGANPVEIRRGVMLAVDAVIAELKKQSKPVTTPEEIAQVATISANGDKEIGNIISDAMKKVGRKGVITVKDGKTLNDELEIIEGMKFDRGYISPYFINTSKGQKCEFQDAYVLLSEKKISSIQSIVPALEIANAHRKPLVIIAEDVDGEALSTLVLNRLKVGLQVVAVKAPGFGDNRKNQLKDMAIATGGAVFGEEGLTLNLEDVQPHDLGKVGEVIVTKDDAMLLKGKGDKAQIEKRIQEIIEQLDVTTSEYEKEKLNERLAKLSDGVAVLKVGGTSDVEVNEKKDRVTDALNATRAAVEEGIVLGGGCALLRCIPALDSLTPANEDQKIGIEIIKRTLKIPAMTIAKNAGVEGSLIVEKIMQSSSEVGYDAMAGDFVNMVEKGIIDPTKVVRTALLDAAGVASLLTTAEVVVTEIPKEEKDPGMGAMGGMGGGMGGGMF
B2: human mitochondrial Hsp60 E321K mutant (natural protein, UniProt P10809 27-573, looked up)
chain: B1 chain with E321K
notes: human mitochondrial Hsp60 with E321K, isolated from an error-prone PCR library; also called E321K mHsp60; source: expressed in bacteria, purified as oligomers
B3: human mitochondrial Hsp60 R264K/E358K double mutant (natural protein, UniProt P10809 27-573, looked up)
chain: B1 chain with R264K, E358K
notes: human mitochondrial Hsp60 with R264K and E358K, isolated from an error-prone PCR library; also called R264K/E358K mHsp60; source: expressed in bacteria, purified as oligomers

Key:
GroES L27A mutant = biological target: T1, GroES L27A mutant (E. coli, UniProt P0A6F9 1-97, L27A); experiment: cell-based or functional assay
T1 sequence: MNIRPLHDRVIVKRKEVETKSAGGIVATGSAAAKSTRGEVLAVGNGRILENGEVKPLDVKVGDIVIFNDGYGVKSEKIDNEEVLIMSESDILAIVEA

GroES [1] = biological target: T2, GroES (E. coli, UniProt P0A6F9 1-97); experiment: cell-based or functional assay
T2 sequence: T1 sequence with A27L

mHsp10 L33A mutant = mHsp10 L33A mutant (human, UniProt P61604 1-102, L33A); experiment: cell-based or functional assay
GroES [2] = biological target: T2, GroES; experiment: SPR; ProteOn XPR36; GroES or mHsp10 immobilised by amine coupling on a GLC chip; six concentrations of each mHsp60 variant injected; 20 mM Na-HEPES pH 7.5, 100 mM KCl, 10 mM MgCl2, 0.005% Tween, 2 mM ATP; apparent constants from equilibrium analysis; settings: both partners purified
[3] = biological target: mitochondrial Hsp10, hexa-histidine-tagged (human, UniProt P61604 1-102); experiment: cell-based or functional assay
Sequence of mitochondrial Hsp10, hexa-histidine-tagged (P61604 whole entry): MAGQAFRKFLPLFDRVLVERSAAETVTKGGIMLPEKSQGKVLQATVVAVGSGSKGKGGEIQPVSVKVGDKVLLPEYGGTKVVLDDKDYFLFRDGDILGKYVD

Sequence of mHsp10 L33A mutant (P61604 whole entry L33A): as the sequence (P61604 whole entry) above, with L33A counted along it

| Binder | inhibition of the chaperonin's steady-state ATPase activity by co-chaperonin (2:1 co-chaperonin:chaperonin) (GroES L27A mutant) | inhibition of the chaperonin's steady-state ATPase activity by co-chaperonin (2:1 co-chaperonin:chaperonin) (GroES [1]) | inhibition of the chaperonin's steady-state ATPase activity by co-chaperonin (2:1 co-chaperonin:chaperonin) (mHsp10 L33A mutant) | KA ratio (apparent KA relative to that of mHsp60 and mHsp10) (GroES [2]) | inhibition of the chaperonin's steady-state ATPase activity by co-chaperonin (2:1 co-chaperonin:chaperonin) [3] |
| --- | --- | --- | --- | --- | --- |
| B1 | 0% | 0% | 0% |  |  |
| B2 | 0% | 30% | 26% | 1.43 ratio |  |
| B3 | 0% | 47% | 40% |  | 48% |
